Test results from patent US20220089678A1 (CARTESIAN THERAPEUTICS, published 2022).

Tests used:
[1] = molecular target: T1, phycoerythrin (PE)-conjugated BCMA (Recombinant Human TNFRSF17 protein, Fc/His-tagged, R-PE labeled); Creative … (human, UniProt Q02223 1-54, R-PE labeled); assay: flow cytometry; CAR T cells stained with BCMA-PE, 3 days after electroporation
T1 construct: Bought reagent; also called BCMA-PE; not shown: Fc/His tag of the bought reagent
T1 sequence: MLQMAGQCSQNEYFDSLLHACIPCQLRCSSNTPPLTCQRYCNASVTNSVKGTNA
Method: (§1) CAR T cells obtained from the above-described process were tested for viability, CAR protein expression, BCMA binding, and cytotoxicity, i.e., the ability to kill BCMA+ myeloma (tumor) cells. Viability, CAR expression, and BCMA binding were determined by flow cytometry on a GUAVA® […]® 12HT Flow cytometer (EMD Millipore). To test viability, a sample of the CAR T cells was mixed with propidium iodide and run on the flow cytometer with electronic gating on fluorescence in the near infrared channel. To test CAR protein expression and BCMA binding, a sample of the CAR T cells was incubated with 0.4 ug/mL of phycoerythrin (PE)-conjugated BCMA (Recombinant Human TNFRSF17 protein, Fc/His-tagged, R-PE labeled; Creative Biomart, Shirley, N.Y.). CAR expression was assessed on the flow cytometer with electronic gating on fluorescence in the yellow channel to detect presence or absence of emission from BCMA-PE on CAR-positive and CAR-negative cells. BCMA binding was determined by measuring the intensity of fluorescence in the yellow channel to determine the relative quantity of BCMA-PE bound to labelled CAR-positive cells. For the viability, expression, and BCMA binding assays, CD8+ T cells electroporated without mRNA (CAR-negative T Cells) were tested as a parallel control.
For each of the mRNA constructs, CAR T cells were prepared by transfection into human CD8+ cells, as described in Example 1. The CAR T cells made from each mRNA construct were then tested 3 days after electroporation for BCMA binding and tumor killing, as described in Example 1.

human BCMA on cells = molecular target: T2, human BCMA on cells (human, UniProt Q02223 1-184); assay: cell-based or functional assay
T2 sequence: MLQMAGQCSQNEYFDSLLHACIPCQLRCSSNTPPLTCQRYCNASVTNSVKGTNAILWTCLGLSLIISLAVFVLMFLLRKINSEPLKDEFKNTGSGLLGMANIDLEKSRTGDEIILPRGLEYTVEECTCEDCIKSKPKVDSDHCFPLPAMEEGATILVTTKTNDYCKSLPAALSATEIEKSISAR

[2] = molecular target: T1, phycoerythrin (PE)-conjugated BCMA …; assay: flow cytometry; CAR T cells stained with BCMA-PE, 3 days after electroporation; remark: listed apart in the source
Method: as §1
Numerous CAR-encoding mRNA constructs were prepared using the mRNA construct of SEQ ID: 29 as a starting point (which encodes a CAR of sequence SEQ ID: 19 and comprises the scFv of sequence SEQ ID: 48). These constructs encoded the same or substantially the same amino acid residues in the scFv complementary-determining regions (CDRs) but varied with respect to the amino acid residues in the scFv framework regions. In making these variations, the experimenter's intent was to humanize the scFv framework regions without reducing BCMA-binding and tumor-killing properties of CAR T cells that express the CAR. For each of the mRNA constructs, CAR T cells were prepared by transfection into human CD8+ cells, substantially as described in Example 1. The CAR T cells made from each mRNA construct were then tested 3 days after electroporation for BCMA binding and/or tumor killing, as substantially described in Example 1.

| Binder | BCMA Binding (arbitrary units) [1] | Killing (% killed), Effector:target ratio of 1:2 (human BCMA on cells) | BCMA Binding (relative to SEQ ID: 54) [2] |
| --- | --- | --- | --- |
| CAR comprising scFv-1′ (SEQ ID NO: 62) (other, CAR on mRNA-electroporated human CD8+ T cells; Only the scFv is identified; not shown: rest of the CAR (hinge, transmembrane, cytoplasmic domains) not specified for this construct) DIVLTQSPSSLSASVGDRATISCRASESVTILGSHLIHWYQQKPGQAPKLLIQLASNVQTGVPARFSGSGSGTDFTLTISSVEPEDVAVYYCLQSRTIPRTFGQGTKVEIKGSTSGSGKPGSGEGSTKGQIQLVQSGPELKKPGGSVKISCAASGYTFTSYDINWVRQAPGKGLEWVGWINTETREPAYAYDFRGRFTFSADTSKSTAYLQMNSLRAEDTAVYYCALDYSYAMDYWGQGTLVTVSS | 189 arbitrary units | 3% | – |
| CAR comprising scFv-4′ (SEQ ID NO: 63) (other, CAR on mRNA-electroporated human CD8+ T cells; Only the scFv is identified; not shown: rest of the CAR (hinge, transmembrane, cytoplasmic domains) not specified for this construct) DIVLTQSPSSLSASVGDRATISCRASESVTILGSHLIHWYQQKPGQAPKLLIQLASNVQTGVPARFSGSGSGTDFTLTISSVEPEDVAVYYCLQSRTIPRTFGQGTKVEIKGSTSGSGKPGSGEGSTKGQIQLVQSGPELKKPGGSVKISCAASGYTFTDYSINWVRQAPGKGLEWVGWINTETREPAYAYDFRGRFTFSADTSKSTAYLQMNSLRAEDTAVYYCALDYTYGMDYWGQGTLVTVSS | 439 arbitrary units | 78% | – |
| CAR comprising scFv-8′ (SEQ ID NO: 64) (other, CAR on mRNA-electroporated human CD8+ T cells; Only the scFv is identified; not shown: rest of the CAR (hinge, transmembrane, cytoplasmic domains) not specified for this construct) DIVLTQSPSSLSASVGDRATISCRASESVSFLGINLIHWYQQKPGQAPKLLIYSASNLQSGVPARFSGSGSGTDFTLTISSVEPEDVAVYYCLQSRTLPRTFGQGTKVEIKGSTSGSGKPGSGEGSTKGQIQLVQSGPELKKPGGSVKISCAASGYTFTDYSINWVRQAPGKGLEWVGWINTETREPAYAYDFRGRFTFSADTSKSTAYLQMNSLRAEDTAVYYCALDYSYAMDYWGQGTLVTVSS | 496 arbitrary units | 26% | – |
| CAR comprising scFv-9′ (SEQ ID NO: 65) (other, CAR on mRNA-electroporated human CD8+ T cells; Only the scFv is identified; not shown: rest of the CAR (hinge, transmembrane, cytoplasmic domains) not specified for this construct) DIVLTQSPSSLSASVGDRATISCRASESVSFLGINLIHWYQQKPGQAPKLLIYSASNLQSGVPARFSGSGSGTDFTLTISSVEPEDVAVYYCLQSKNFPRTFGQGTKVEIKGSTSGSGKPGSGEGSTKGQIQLVQSGPELKKPGGSVKISCAASGYTFTDYSINWVRQAPGKGLEWVGWINTETREPAYAYDFRGRFTFSADTSKSTAYLQMNSLRAEDTAVYYCALDYSYAMDYWGQGTLVTVSS | 173 arbitrary units | 86% | – |
| CAR comprising scFv-Y31 (SEQ ID NO: 56) (other, CAR on mRNA-electroporated human CD8+ T cells; Only the scFv is identified; not shown: rest of the CAR (hinge, transmembrane, cytoplasmic domains) not specified for this construct) DIVLTQSPSSLSASVGDRATISCRASESVTILGSHLIHWYQQKPGQAPKLLIQLASNVQTGVPARFSGSGSGTDFTLTISSVEPEDVAVYYCLQSRTIPRTFGQGTKVEIKGSTSGSGKPGSGEGSTKGQIQLVQSGPELKKPGGSVKISCAASGYTFTDYSINWVKQAPGKGLEWVGWINTETREPAYAYDFRGRFTFSADTSKSTAYLQMNSLRAEDTAVYYCALDYSYAMDYWGQGTLVTVSS | – | – | 58 relative to SEQ ID: 54 = 100 |
| CAR comprising scFv-Y33 (SEQ ID NO: 58) (other, CAR on mRNA-electroporated human CD8+ T cells; Only the scFv is identified; not shown: rest of the CAR (hinge, transmembrane, cytoplasmic domains) not specified for this construct) DIVLTQSPSSLSASVGDRATISCRASESVTILGSHLIHWYQQKPGQAPKLLIQLASNVQTGVPARFSGSGSGTDFTLTISSVEPEDVAVYYCLQSRTIPRTFGQGTKVEIKGSTSGSGKPGSGEGSTKGQIQLVESGAEVKKPGGSVKISCAASGYTFTDYSINWVKQAPGKGLEWVGWINTETREPAYAYDFRGRFTFSLDTSKSTAYLQMNSLRAEDTAVYYCALDYSYAMDYWGQGTLVTVSS | – | – | 40 relative to SEQ ID: 54 = 100 |
| CAR comprising scFv-Y34 (SEQ ID NO: 59) (other, CAR on mRNA-electroporated human CD8+ T cells; Only the scFv is identified; not shown: rest of the CAR (hinge, transmembrane, cytoplasmic domains) not specified for this construct) DIVLTQSPSSLSASVGDRATISCRASESVTILGSHLIHWYQQKPGQAPKLLIQLASNVQTGVPARFSGSGSGTDFTLTISSVEPEDVAVYYCLQSRTIPRTFGQGTKVEIKGSTSGSGKPGSGEGSTKGQIQLVESGAEVKKPGGSVKVSCKASGYTFTDYSINWVRQAPGKGLEWVGWINTETREPAYAYDFRGRFAISAETSKSTAYLQMNSLRAEDTAVYYCALDYSYAMDYWGQGTLVTVSS | – | – | 79 relative to SEQ ID: 54 = 100 |
